Experimental data: US20250152742A1, “COMPOSITIONS AND METHODS FOR NEUROLOGICAL DISEASES” (Trames Bio, Inc., priority 2022, published 2025)
Positions count from the first letter of the chain named. Names may count otherwise.

Tested on: engineered chimeric receptor SEQ ID NO: 33 and its mutants (human α7-nAChR ligand binding domain / human GlyRα1 ion pore domain) in Lenti-X 293T cells
Experiment: YFP fluorescence quenching anion reporter plate reader assay (percent quench, EC50)
Type: cell-based
Conditions: for YFP fluorescence quenching using CNL001 (percent quench): receptor named in row; for YFP fluorescence quenching using Facinicline, 30 nM fac: ligand Facinicline 30 nM; for YFP fluorescence quenching using Facinicline, 300 nM fac: ligand Facinicline 300 nM; for YFP fluorescence quenching using Facinicline, 10 uM fac: ligand Facinicline 10 uM; for YFP fluorescence quenching using Facinicline, 30 uM fac: ligand Facinicline 30 uM; for YFP fluorescence quenching using TC-6987, 1 uM tc6987: ligand TC-6987 1 uM; for YFP fluorescence quenching using TC-6987, 10 uM tc6987: ligand TC-6987 10 uM; for YFP fluorescence quenching using TC-6987, 500 uM tc6987: ligand TC-6987 500 uM; for YFP fluorescence quenching using Varenicline, 3 nM var: ligand Varenicline 3 nM; for YFP fluorescence quenching using Varenicline, 30 nM var: ligand Varenicline 30 nM; for YFP fluorescence quenching using Varenicline, 300 nM var: ligand Varenicline 300 nM; for YFP fluorescence quenching using Varenicline, 500 nM var: ligand Varenicline 500 nM; for YFP fluorescence quenching using Varenicline, 1 uM var: ligand Varenicline 1 uM
Description: To screen these mutant LGICs for those having novel response profiles to ligands, an anion reporter assay was developed to assess the function of the LGICs in a high throughput format. In this assay, cells expressing a YFP reporter whose fluorescence is quenched in the presence of anion are transfected with DNA encoding the channel of interest. Upon exposure to ligand, channels that are activated will flux anion, resulting in a dose-dependent quench of the YFP that can be detected on a plate reader. The greater the quench signal (i.e., the more positive the value), the higher the ligand activity on the receptor is.
Lenti-X 293T cells (LX293T, Clontech) were maintained in DMEM containing 10% FBS and 1% penicillin/streptomycin (Invitrogen). […] Two days before assay, cells were split at a density of 20,000 cells/well in a 96-well tissue culture plate coated with poly-d lysine (Thermo Scientific). The next day, the cells were transiently transfected with 0.1 μg of DNA per well using standard Fugene protocol (Promega). On the day of assay, cells were washed 2 times in 1X extracellular solution (1X ECS: 140 mM NaCl, 5 mM KCl, 1 mM MgCl2, 2 mM CaCl2, 10 mM HEPES, 10 mM glucose, pH 7.2, mOsms 300). After the last wash, 100 μL of 1X ECS was added to the wells and the plate was incubated at 37° C. for 30 min. While incubating the plate, the drugs were diluted to a 2X concentration in 1X ECS-Nal (same components as 1X ECS except the 140 mM NaCl was replaced by 140 mM Nal). The plates were then read on a Flexstation3 (Molecular Devices). Each well, 8 wells at a time, of the plate is read for 2 min using a Flexstation3 (Molecular Devices) as follows: 1) a baseline YFP fluorescence is read for 17 sec, 2) 100 μL of ligand is added, and 3) the changes in YFP fluorescence are then measured every 1.3 sec for 1 minute and 43 seconds. The percent quench is calculated from the average fluorescence of the last 10 seconds of the read divided by the baseline average of the first 15 seconds prior to the ligand addition.
FIGS. 1A-1J provide heat maps of the percent quench of YFP fluorescence following stimulation by various doses of either acetylcholine or the non-native ligand as indicated in the Figures. CODA71 (SEQ ID NO: 33) was used as a control, and CODA75 (SEQ ID NO: 29, a non-responding chimeric engineered receptor) was used as the negative control. Quenching of the fluorescence signal, as indicated by blue shaded cells, indicate the level of engineered receptor activation by the non-native ligand at that concentration.

[1] = 1 nM CNL001, first column so headed
[2] = 1 nM CNL001, second column so headed
[3] = 1 nM brd (TC-5619/Bradanicline)
[4] = 3 nM brd (TC-5619/Bradanicline)
[5] = 10 nM CNL001, first column so headed
[6] = 10 nM CNL001, second column so headed
[7] = 10 nM brd (TC-5619/Bradanicline)
[8] = 30 nM brd (TC-5619/Bradanicline)
[9] = 50 nM CNL001, first column so headed
[10] = 50 nM CNL001, second column so headed
[11] = 100 nM CNL001, first column so headed
[12] = 100 nM CNL001, second column so headed
[13] = 100 nM brd (TC-5619/Bradanicline)
[14] = 300 nM brd (TC-5619/Bradanicline)
[15] = 1 uM CNL001, first column so headed
[16] = 1 uM CNL001, second column so headed
[17] = 1 uM brd (TC-5619/Bradanicline)

B1: CODA282: engineered receptor: Y115D in SEQ ID NO: 33 (protein)
chain: MRCSPGGVWLALAASLLHVSLQGEFQRKLYKELVKNYNPLERPVANDSQPLTVYFSLSLLQIMDVDEKNQVLTTNIWLQMSWTDHYLQWNVSEYPGVKTVRFPDGQIWKPDILLDNSADERFDATFHTNVLVNSSGHCQYLPPGIFKSSCPMDLKNFPMDVQTCKLKFGSWSYGGWSLDLQMQEADISGYIPNGEWDLVGIPGKRSERFYECCKEPYPDVTFTVTMRRRMGYYLIQMYIPSLLIVILSWISFWINMDAAPARVGLGITTVLTMTTQSSGSRASLPKVSYVKAIDIWMAVCLLFVFSALLEYAAVNFVSRQHKELLRFRRKRRHHKSPMLNLFQEDEAGEGRFNFSAYGMGPACLQAKDGISVKGANNSNTTNPPPAPSKSPEEMRKLFIQRAKKIDKISRIGFPMAFLIFNMFYWIIYKIVRREDVHNQ
modifications: synthetic sequence of chimeric LGIC
[1]
  YFP fluorescence quenching using CNL001 (percent quench): −15.837%
[2]
  YFP fluorescence quenching using CNL001 (percent quench): −6.519%
[3]
  YFP fluorescence quenching using TC-5619/Bradanicline (percent quench): −0.54%
[4]
  YFP fluorescence quenching using TC-5619/Bradanicline (percent quench): −7.22%
[5]
  YFP fluorescence quenching using CNL001 (percent quench): −4.862%
[6]
  YFP fluorescence quenching using CNL001 (percent quench): −8.244%
[7]
  YFP fluorescence quenching using TC-5619/Bradanicline (percent quench): −2.82%
30 nM TC-6683
  YFP fluorescence quenching using TC-6683 (percent quench): 0.365%
[8]
  YFP fluorescence quenching using TC-5619/Bradanicline (percent quench): −16.67%
[9]
  YFP fluorescence quenching using CNL001 (percent quench): −3.807%
[10]
  YFP fluorescence quenching using CNL001 (percent quench): −2.871%
50 nM abt (ABT-126)
  YFP fluorescence quenching using ABT-126 (percent quench): −21.22%
[11]
  YFP fluorescence quenching using CNL001 (percent quench): −7.924%
[12]
  YFP fluorescence quenching using CNL001 (percent quench): 2.11%
100 nM CNL002
  YFP fluorescence quenching (percent quench): −9.7%
100 nM abt (ABT-126)
  YFP fluorescence quenching using ABT-126 (percent quench): −19.7%
100 nM azd0328
  YFP fluorescence quenching using AZD-0328 (percent quench): 3.19%
[13]
  YFP fluorescence quenching using TC-5619/Bradanicline (percent quench): −0.02%
300 nM TC-6683
  YFP fluorescence quenching using TC-6683 (percent quench): −6.865%
300 nM abt (ABT-126)
  YFP fluorescence quenching using ABT-126 (percent quench): −15.55%
300 nM azd0328
  YFP fluorescence quenching using AZD-0328 (percent quench): 4.79%
[14]
  YFP fluorescence quenching using TC-5619/Bradanicline (percent quench): −12.37%
[15]
  YFP fluorescence quenching using CNL001 (percent quench): 11.047%
[16]
  YFP fluorescence quenching using CNL001 (percent quench): 8.04%
1 uM CNL002
  YFP fluorescence quenching (percent quench): −8.37%
1 uM abt (ABT-126)
  YFP fluorescence quenching using ABT-126 (percent quench): −14.31%
[17]
  YFP fluorescence quenching using TC-5619/Bradanicline (percent quench): 31.23%
3 uM TC-6683
  YFP fluorescence quenching using TC-6683 (percent quench): −4.927%
10 uM ach (acetylcholine)
  YFP fluorescence quenching (percent quench): 6.81%
30 uM CNL002
  YFP fluorescence quenching (percent quench): 3.4%
30 uM TC-6683
  YFP fluorescence quenching using TC-6683 (percent quench): −11.259%
30 uM azd0328
  YFP fluorescence quenching using AZD-0328 (percent quench): 76.78%
100 uM TC-6683
  YFP fluorescence quenching using TC-6683 (percent quench): −11.894%
100 uM ach (acetylcholine)
  YFP fluorescence quenching (percent quench): 1.19%
1 mM ach (acetylcholine)
  YFP fluorescence quenching (percent quench): −14.05%
3 mM ach (acetylcholine)
  YFP fluorescence quenching (percent quench): 2.37%
  YFP fluorescence quenching using Facinicline, 30 nM fac: 10.17
  YFP fluorescence quenching using Facinicline, 300 nM fac: 51.04
  YFP fluorescence quenching using Facinicline, 10 uM fac: 79.76
  YFP fluorescence quenching using Facinicline, 30 uM fac: 81.7
  YFP fluorescence quenching using TC-6987, 1 uM tc6987: 13.01
  YFP fluorescence quenching using TC-6987, 10 uM tc6987: 14.73
  YFP fluorescence quenching using TC-6987, 500 uM tc6987: 14.29
Ligand Facinicline 100 nM
  YFP fluorescence quenching using Facinicline, 100 nM fac: 24.77
First column
  YFP fluorescence quenching using Varenicline, 3 nM var: 2.111
  YFP fluorescence quenching using Varenicline, 30 nM var: −4.433
  YFP fluorescence quenching using Varenicline, 300 nM var: −0.861
  YFP fluorescence quenching using Varenicline, 500 nM var: 0.733
  YFP fluorescence quenching using Varenicline, 1 uM var: −4.512
Second column
  YFP fluorescence quenching using Varenicline, 3 nM var: −12.265
  YFP fluorescence quenching using Varenicline, 30 nM var: −6.153
  YFP fluorescence quenching using Varenicline, 300 nM var: −1.308
  YFP fluorescence quenching using Varenicline, 500 nM var: −4.633
  YFP fluorescence quenching using Varenicline, 1 uM var: 0.02

B2: CODA283: engineered receptor: Y115E_N379K in SEQ ID NO: 33 (protein)
chain: B1 chain with D115E, N379K
modifications: synthetic sequence of chimeric LGIC
[1]
  YFP fluorescence quenching using CNL001 (percent quench): −0.713%
[2]
  YFP fluorescence quenching using CNL001 (percent quench): −0.621%
[3]
  YFP fluorescence quenching using TC-5619/Bradanicline (percent quench): 0.59%
[4]
  YFP fluorescence quenching using TC-5619/Bradanicline (percent quench): −6.41%
[5]
  YFP fluorescence quenching using CNL001 (percent quench): 7.739%
[6]
  YFP fluorescence quenching using CNL001 (percent quench): 15.277%
[7]
  YFP fluorescence quenching using TC-5619/Bradanicline (percent quench): −1.58%
[8]
  YFP fluorescence quenching using TC-5619/Bradanicline (percent quench): −14.24%
[9]
  YFP fluorescence quenching using CNL001 (percent quench): 19.489%
[10]
  YFP fluorescence quenching using CNL001 (percent quench): 33.703%
50 nM abt (ABT-126)
  YFP fluorescence quenching using ABT-126 (percent quench): −22.65%
[11]
  YFP fluorescence quenching using CNL001 (percent quench): 56.886%
[12]
  YFP fluorescence quenching using CNL001 (percent quench): 60.171%
100 nM CNL002
  YFP fluorescence quenching (percent quench): −5.81%
100 nM abt (ABT-126)
  YFP fluorescence quenching using ABT-126 (percent quench): −20.55%
100 nM azd0328
  YFP fluorescence quenching using AZD-0328 (percent quench): −2.1%
[13]
  YFP fluorescence quenching using TC-5619/Bradanicline (percent quench): 33.36%
300 nM abt (ABT-126)
  YFP fluorescence quenching using ABT-126 (percent quench): −12.93%
300 nM azd0328
  YFP fluorescence quenching using AZD-0328 (percent quench): 38.2%
[14]
  YFP fluorescence quenching using TC-5619/Bradanicline (percent quench): 43.81%
[15]
  YFP fluorescence quenching using CNL001 (percent quench): 69.836%
[16]
  YFP fluorescence quenching using CNL001 (percent quench): 73.855%
1 uM CNL002
  YFP fluorescence quenching (percent quench): 9.69%
1 uM abt (ABT-126)
  YFP fluorescence quenching using ABT-126 (percent quench): 1.71%
[17]
  YFP fluorescence quenching using TC-5619/Bradanicline (percent quench): 75.39%
10 uM ach (acetylcholine)
  YFP fluorescence quenching (percent quench): −6.16%
30 uM CNL002
  YFP fluorescence quenching (percent quench): −12.85%
30 uM azd0328
  YFP fluorescence quenching using AZD-0328 (percent quench): 79.44%
100 uM ach (acetylcholine)
  YFP fluorescence quenching (percent quench): −11.12%
1 mM ach (acetylcholine)
  YFP fluorescence quenching (percent quench): −2.74%
3 mM ach (acetylcholine)
  YFP fluorescence quenching (percent quench): 53.61%
  YFP fluorescence quenching using Facinicline, 30 nM fac: 6.39
  YFP fluorescence quenching using Facinicline, 300 nM fac: 78.36
  YFP fluorescence quenching using Facinicline, 10 uM fac: 81.93
  YFP fluorescence quenching using Facinicline, 30 uM fac: 78.63
  YFP fluorescence quenching using TC-6987, 1 uM tc6987: −9.54
  YFP fluorescence quenching using TC-6987, 10 uM tc6987: −7.06
  YFP fluorescence quenching using TC-6987, 500 uM tc6987: −15.15
